Here are results for one molecule from article PMC11341838 (Nature Communications, 2024).

This assay concerns the target T1, Pf3D7 recombinant AMA1, full ectodomain (domain I, II and III) (P. falciparum (strain 3D7)).
T1 chain: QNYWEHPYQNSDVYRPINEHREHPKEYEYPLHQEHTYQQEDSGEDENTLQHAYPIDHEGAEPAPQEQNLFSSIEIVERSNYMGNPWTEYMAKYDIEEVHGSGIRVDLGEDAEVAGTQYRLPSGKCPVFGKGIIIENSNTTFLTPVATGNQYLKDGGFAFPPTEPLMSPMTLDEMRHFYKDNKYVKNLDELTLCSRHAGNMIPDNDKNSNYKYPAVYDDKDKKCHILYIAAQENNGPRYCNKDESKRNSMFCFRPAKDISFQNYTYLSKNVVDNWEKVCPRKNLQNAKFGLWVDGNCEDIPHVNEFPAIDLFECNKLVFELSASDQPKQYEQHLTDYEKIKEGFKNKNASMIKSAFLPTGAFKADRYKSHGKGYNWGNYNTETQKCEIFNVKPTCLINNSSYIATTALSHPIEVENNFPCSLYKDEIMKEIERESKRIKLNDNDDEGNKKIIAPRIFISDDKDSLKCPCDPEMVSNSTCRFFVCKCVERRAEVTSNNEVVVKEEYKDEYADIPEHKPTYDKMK
The assay can be described thus: ELISA. Background: An ELISA detects its analyte on a solid surface through an enzyme-linked reagent.

B1: mAb 1F9 (antibody, V domains shown)
VH: EVQLQQSGAELLKPGASVKLSCIVSGFKIKDTSMHWVKQRPEQGLEWIGRIDPANDNSEYDPKFQGKATITADTSSNTAYLQLSSLTSEDTAVYYCTLSHFWGQGTTLTVSS
VL: SIVMTQTPKFLPVSAGDRVTIICKASQSVSNDVVWYQQKPGQSPKLLIYYASIRYTGVPDRFTGSGYGTDFTFTISTVQVEDLAVYFCQQGFSSPRTFGGGTKLEIN
As for B1, the binding result is “binds”.
